Assay results from patent US20240368239A1, “Novel bispecific protein and use thereof” (SL METAGEN, priority 2020, published 2024).
Entries after “also recorded” stand apart in the source; their conditions may differ. Read-outs that look alike come from different tables or passages of the source.

T1: GLP-2 receptor (Homo sapiens, UniProt O95838)
T1 sequence (O95838 1-553): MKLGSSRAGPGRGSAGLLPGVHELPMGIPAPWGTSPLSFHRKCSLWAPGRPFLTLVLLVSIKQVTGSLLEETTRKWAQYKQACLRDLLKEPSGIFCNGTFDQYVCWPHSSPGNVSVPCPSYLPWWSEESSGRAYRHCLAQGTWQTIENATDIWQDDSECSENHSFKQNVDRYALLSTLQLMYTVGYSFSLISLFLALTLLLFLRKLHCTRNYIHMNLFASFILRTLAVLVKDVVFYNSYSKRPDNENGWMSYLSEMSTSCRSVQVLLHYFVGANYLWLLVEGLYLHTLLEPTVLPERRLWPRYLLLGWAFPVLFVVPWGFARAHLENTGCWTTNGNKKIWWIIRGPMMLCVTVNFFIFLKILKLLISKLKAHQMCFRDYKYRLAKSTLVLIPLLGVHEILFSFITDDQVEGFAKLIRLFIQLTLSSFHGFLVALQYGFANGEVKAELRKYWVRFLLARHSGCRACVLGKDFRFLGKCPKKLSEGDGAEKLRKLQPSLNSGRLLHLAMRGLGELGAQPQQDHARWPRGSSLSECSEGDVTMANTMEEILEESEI

B1: MG12-2: Knob/hole Fc heterodimer: GLP-2 (SEQ 17), glycan linker, second fusion protein SEQ 33; GLP-1 (SEQ 1), first fusion protein SEQ 25 (protein)
chain 1: HGDGSFSDEMNTILDNLAARDFINWLIQTKITDGGGGSGGGGSGGGGSAKNTTAPATTRNTTRGGEEKKKEKEKEEQEERTHTCPPCPSHTQPLGVFLFPPKPKDTLMISRTPEVTCVVVDVSQEDPEVQFNWYVDGVEVHNAKTKPREEQFNSTYRVVSVLTVLHQDWLNGKEYKCKVSNKGLPSSIEKTISKAKGQPREPQVYTLPPCQEEMTKNQVSLWCLVKGFYPSDIAVEWESNGQPENNYKTTPPVLDSDGSFFLYSRLTVDKSRWQEGNVFSCSVMHEALHNHYTQKSLSLSLGK
chain 2: HGEGTFTSDVSSYLEGQAAKEFIAWLVKGRGGGGGSGGGGSGGGGSEKEKEEQEERTHTCPPCPSHTQPLGVFLFPPKPKDTLMISRTPEVTCVVVDVSQEDPEVQFNWYVDGVEVHNAKTKPREEQFNSTYRVVSVLTVLHQDWLNGKEYKCKVSNKGLPSSIEKTISKAKGQPREPQVCTLPPSQEEMTKNQVSLSCAVKGFYPSDIAVEWESNGQPENNYKTTPPVLDSDGSFFLVSRLTVDKSRWQEGNVFSCSVMHEALHNHYTQKSLSLSLGK
B2: GLP-2-Fc homodimer: GLP-2 homodimer fused with Fc not containing the Knobs-into-Holes (KiH) structure (protein)
chain: B1 chain 2
modifications: first fusion protein of bispecific fusion protein containing GLP-1 analogue
notes: GLP-2 homodimer fused with Fc not containing the Knobs-into-Holes (KiH) structure
B3: MG12-4: Knob/hole Fc heterodimer: GLP-1/Exendin 4 hybrid (SEQ 5), glycan linker, first fusion protein SEQ 27; GLP-2 (SEQ 17), second fusion protein SEQ 34 (protein)
chain 1: HGEGTFTSDVSSYLEGQAAKEFIAWLVKGGPSSGAPPPSGGGGGSGGGGSGGGGSAKNTTAPATTRNTTRGGEEKKKEKEKEEQEERTHTCPPCPSHTQPLGVFLFPPKPKDQLMISRTPEVTCVVVDVSQEDPEVQFNWYVDGVEVHNAKTKPREEQFNSTYRVVSVLTVLHQDWLNGKEYKCKVSNKGLPSSIEKTISKAKGQPREPQVYTLPPCQEEMTKNQVSLWCLVKGFYPSDIAVEWESNGQPENNYKTTPPVLDSDGSFFLYSRLTVDKSRWQEGNVFSCSVLHEALHNHYTQKSLSLSLGK
chain 2: HGDGSFSDEMNTILDNLAARDFINWLIQTKITDGGGGSGGGGSGGGGSEKEKEEQEERTHTCPPCPSHTQPLGVFLFPPKPKDQLMISRTPEVTCVVVDVSQEDPEVQFNWYVDGVEVHNAKTKPREEQFNSTYRVVSVLTVLHQDWLNGKEYKCKVSNKGLPSSIEKTISKAKGQPREPQVCTLPPSQEEMTKNQVSLSCAVKGFYPSDIAVEWESNGQPENNYKTTPPVLDSDGSFFLVSRLTVDKSRWQEGNVFSCSVLHEALHNHYTQKSLSLSLGK

Tests used:
GLP-2 receptor = target: T1, GLP-2 receptor; test: GLP-2 in vitro activity, cAMP/CNG channel membrane potential fluorescence assay (Human GLP2R ACTOne cell line)
B6 normal mice [1] = test: Small intestine weight and body weight (GLP-1-Fc homodimer, GLP-2-Fc homodimer, MG12-1, MG12-4); assay type: in vivo; details: SC twice a week, 4 doses; homodimers 10 nmol/kg, MG12 20 nmol/kg
Text: In addition, the present inventors conducted the same experiment as above while only varying the administered substance, in order to confirm whether the bispecific fusion proteins (MG12-1 and MG12-4) designed in a form other than MG12-5 also increase the small intestine weight and energy absorption rate of experimental animals. Specifically, PBS, 10 nmol/kg GLP-1-Fc homodimer, 10 nmol/kg GLP-2-Fc homodimer, 20 nmol/kg MG12-1, and 20 nmol/kg MG12-4 were subcutaneously administered. The drug was administered twice a week for a total of 4 times for 2 weeks. After 4 doses, the body weight was measured before autopsy, and the small intestine was excised after the autopsy and weighed. After the autopsy, the entire gastrointestinal tract of the mouse was separated, the mesentery and the pancreas were excised, and the area where the ileum and the cecum meet was cut to separate the small intestine and the large intestine. The separated small intestine was perfused and washed with 10% neutral formalin to remove the contents, and was weighed after removing the neutral formalin with an absorbent towel.

Balb/c-nude mice = test: PET-MRI tissue distribution of Zr89-labelled proteins; assay type: in vivo; details: Zr89 label, SC
Text: Next, the present inventors performed an experiment in Balb/c-nude mice in order to observe the distribution in each tissue organ following the administration of a substance. Zr^89 was used as a radiotracer for tracking the distribution after administration of each substance. Each substance to be administered was labeled with Zr^89 as a reaction condition and a chelator selected through a preliminary test. The labeled Zr^89-protein was purified using a PD-10 column, and Zr^89 labeling efficiency and purity were confirmed using Radio TLC and SEC-HPLC. The labeling efficiency of the Zr^89-protein of 90% or more and the purity of 80% or more were determined to be appropriate, and the labeled protein was administered subcutaneously at 0.2 mCi/0.2 cc. Each administration substance was administered to three animals and static images for 20 minutes were obtained using PET-MRI at 1 hour, 6 hours, 24 hours, 48 hours, and 168 hours after injection. Through image analysis, the distribution of drugs as a function of time in the liver, small intestine, and large intestine was expressed as SUV (Standardized Uptake Value) and comparatively analyzed.

[2] = In vivo pharmacokinetics profile after subcutaneous administration (GLP-1-Fc ELISA and GLP-2-Fc ELISA); parameters: species or system male SD (Sprague Dawley) rats; details: GLP-1-Fc ELISA
Description: First, each protein was administered to 3 male SD (Sprague Dawley) rats per group at a dose of 1 mg/kg by subcutaneous (SC) route. Before injection and after 0.5, 1, 5, 10, 24, 48, 72, 120, and 168 hours after the injection, blood was collected and stored at room temperature for 30 minutes to aggregate. After centrifuging the aggregated blood at 3,000 rpm for 10 minutes, serum of each sample was collected and stored in a cryogenic freezer. Analyses were performed by an assay designed to specifically detect the GLP-1 site and Fc in the administered protein (GLP-1-Fc ELISA) and an assay designed to specifically detect the GLP-2 site and Fc in the administered protein (GLP-2-Fc ELISA). Specifically, a method of loading a biological sample on a plate coated with an antibody that binds to mouse-derived human immunoglobulin G4 (IgG4) to detect the target protein using a biotinylated anti-GLP-1 antibody (GLP-1-Fc ELISA), and a method of loading a biological sample on a plate coated with a monoclonal antibody that specifically reacts with GLP-2, to detect the target protein using a secondary antibody having HRP conjugated to mouse-derived human immunoglobulin G4 (IgG4) (GLP-2-Fc ELISA) were used. The obtained and prepared serum samples were loaded with appropriate dilutions to be analyzed at a position on a straight line of the standard curve.

B6 normal mice [3] = test: Fluorescence spectrometry tissue distribution of Cy5.5-labelled substances; assay type: in vivo
Description: Next, the present inventors performed an experiment in B6 normal mice in order to observe the distribution in each tissue and organ according to the administration of a bispecific fusion protein according to an embodiment of the present invention. Cy5.5 was used as a fluorophore for tracking the distribution after administration of each substance. Buffer exchange was performed for each substance to be administered, MG12-1, MG12-4, and GLP-1Fc homodimer with boric acid buffer (pH 8.5), and with reference to the protocol of the Cy5.5 labeling kit (GE, #PA15605) were allowed to react with an appropriate amount of Cy5.5 overnight under refrigeration conditions. Unreacted Cy5.5 in the reaction-completed substance was removed through the PBS substitution process, and whether Cy5.5 was reacted well was confirmed through the final SDS-PAGE. Each administered substance was diluted with 10% DMSO/PBS to have the same fluorescence intensity using an ELISA plate reader capable of measuring fluorescence intensity before being administered.

B6 normal mice [4] = test: MG12 vs. GLP-1 and GLP-2 combo: body weight and small intestine changes; assay type: in vivo; details: 12 days SC, normalized to cumulative feed intake
Description: In particular, in order to observe changes in body weight and the small intestine following the substance administration, an experiment was conducted in B6 normal mice. […] After starting drug administration twice a week during the test period, feed intake was measured and expressed as cumulative feed intake, and pre-autopsy body weight was measured to calculate the body weight vs. feed intake. After the autopsy, the weight of the small intestine, and mucosal depth and villus height of the duodenum and the jejunum were measured. More specifically, after the autopsy, the entire gastrointestinal tract of the mouse was separated, the mesentery and the pancreas were excised, and the area where the ileum and the cecum meet was cut to separate the small intestine and the large intestine.

[5] = 24 hours after administration, Cy5.5 label

GLP-2 activity lower than that of other variants (GLP-2 receptor)	EC50 (GLP-2 receptor; Table 3, GLP-2 activity)	EC50 (GLP-2 receptor; read-out: EC50, GLP-2 activity, Table 4 experiment)	Molecule	small intestine weight (B6 normal mice [1])	weight change before autopsy (body weight) (B6 normal mice [1])	SUV (Standardized Uptake Value) in liver, small intestine and large intestine (Balb/c-nude mice; 1-168 hours)	relative activity (%), GLP-2 activity (GLP-2 receptor; compared to GLP-2-Fc homodimer)	terminal half-life, rank among MG12-1, 3, 4 and 5 [2]	Average fluorescence intensity, Brain (B6 normal mice [3]; [5])	Average fluorescence intensity, Large intestine (B6 normal mice [3]; [5])	Average fluorescence intensity, Small intestine (B6 normal mice [3]; [5])	distribution in the small intestine and the large intestine (B6 normal mice [3]; compared to GLP-1-Fc homodimer)	distribution to the liver (SUV) (Balb/c-nude mice)	distribution to the small intestine and large intestine (SUV) (Balb/c-nude mice)	body weight increase vs. feed intake (B6 normal mice [4])
4-5 times			B1												
	0.44 nM	7.7 nM	B2	statistically significant increase	no change	SUV values were increased compared to Fc in all of the three organs	100%								
			B3	greater increase in small intestine weight than the GLP-2-Fc homodimer administered group; also recorded: superior effect of increasing small intestine weight	numerical increase in body weight			shortest half-life	297	2343	4302	larger	reduced or showed no difference compared to Fc	significantly high compared to that of GLP-1-Fc homodimer and GLP-2-Fc homodimer	statistically significant body weight increase compared to the co-administered group
